Measured values as given in patent US20210107958A1, “GLYPICAN EPITOPES AND USES THEREOF” (MINOMIC INTERNATIONAL LTD., priority 2015, published 2021).

Experiments:
Type in all cases: binding
glypican-1 [1] = molecular target: T1, glypican-1 (Homo sapiens, UniProt P35052); experiment: MIL38 immunoprecipitation and western blot of plasma samples (normal and prostate cancer patient)
T1 construct: from tissue; host or cells: human plasma (patients 042 and 046), with or without heparinase treatment
T1 sequence (P35052 24-530 limits assumed): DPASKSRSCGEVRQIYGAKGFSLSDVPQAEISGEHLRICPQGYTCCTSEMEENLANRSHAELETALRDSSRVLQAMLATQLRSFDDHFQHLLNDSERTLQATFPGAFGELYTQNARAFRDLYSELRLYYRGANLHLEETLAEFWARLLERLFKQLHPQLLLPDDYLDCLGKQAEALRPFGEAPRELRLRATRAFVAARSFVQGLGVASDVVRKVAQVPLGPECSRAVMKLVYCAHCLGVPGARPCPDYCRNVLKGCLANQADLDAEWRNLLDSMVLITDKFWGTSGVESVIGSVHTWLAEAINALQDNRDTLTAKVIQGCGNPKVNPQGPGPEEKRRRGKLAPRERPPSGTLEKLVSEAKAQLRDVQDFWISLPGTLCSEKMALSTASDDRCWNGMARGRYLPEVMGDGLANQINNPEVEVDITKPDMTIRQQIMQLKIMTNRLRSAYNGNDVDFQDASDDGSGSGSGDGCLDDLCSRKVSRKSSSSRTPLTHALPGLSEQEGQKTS
From the text: Plasma samples from one normal patient (042) and one prostate cancer patient (046) were immunoprecipitated with MIL38 antibody and the IP sample western blotted with MIL38 and anti-GPC-1 antibodies (FIG. 16A).

human glypican-1 (GPC-1) = experiment: PEPSCAN-based ELISA on linear and CLIPS peptide arrays (sets 1-5) spanning GPC-1
From the text: The following human glypican-1 (GPC-1) sequence was used as a basis to generate a library of structured peptides.
To reconstruct discontinuous epitopes of the target molecule a library of structured peptides was synthesized. This was done using Chemically Linked Peptides on Scaffolds (CLIPS) technology. CLIPS technology allowed the generation of structured peptides in single loops, double-loops, triple loops, sheet-like folds, helix-like folds and combinations thereof. CLIPS templates were coupled to cysteine residues. The side-chains of multiple cysteines in the peptides were coupled to one or two CLIPS templates. For example, a 0.5 mM solution of the T2 CLIPS template 1,3-bis (bromomethyl) benzene was dissolved in ammonium bicarbonate (20 mM, pH 7.9)/acetonitrile (1:1(v/v)). This solution was added onto the peptide arrays. The CLIPS template bound to side-chains of two cysteines as present in the solid-phase bound peptides of the peptide-arrays (455 wells plate with 3 μl wells). The peptide arrays were gently shaken in the solution for 30 to 60 minutes while completely covered in solution. Finally, the peptide arrays were washed extensively with excess of H2O and sonicated in disrupt-buffer containing 1 percent SDS/0.1 percent beta-mercaptoethanol in PBS (pH 7.2) at 70° C. for 30 minutes, followed by sonication in H2O for another 45 minutes. The T3 CLIPS carrying peptides were made in a similar way but with three cysteines.
The binding of antibody to each of the synthesized peptides was tested in a PEPSCAN-based ELISA. The peptide arrays were incubated with primary antibody solution (overnight at 4° C.). […] After one hour, the color development was measured. The color development was quantified with a charge coupled device (CCD)-camera and an image processing system.
The values obtained from the CCD camera ranged from 0 to 3000 mAU, similar to a standard 96-well plate ELISA-reader. The results were quantified and stored in the Peplab database. […] The cards were manually inspected and any values caused by an air-bubble were scored as 0. […]

glypican-1 core protein = molecular target: T2, glypican-1 core protein (Homo sapiens, UniProt P35052); experiment: 2D electrophoresis and western blotting of DU-145 MPEK extracts
T2 construct: endogenous in cells; host or cells: DU-145 prostate cancer cells (membrane protein extract)
T2 sequence (P35052 24-558): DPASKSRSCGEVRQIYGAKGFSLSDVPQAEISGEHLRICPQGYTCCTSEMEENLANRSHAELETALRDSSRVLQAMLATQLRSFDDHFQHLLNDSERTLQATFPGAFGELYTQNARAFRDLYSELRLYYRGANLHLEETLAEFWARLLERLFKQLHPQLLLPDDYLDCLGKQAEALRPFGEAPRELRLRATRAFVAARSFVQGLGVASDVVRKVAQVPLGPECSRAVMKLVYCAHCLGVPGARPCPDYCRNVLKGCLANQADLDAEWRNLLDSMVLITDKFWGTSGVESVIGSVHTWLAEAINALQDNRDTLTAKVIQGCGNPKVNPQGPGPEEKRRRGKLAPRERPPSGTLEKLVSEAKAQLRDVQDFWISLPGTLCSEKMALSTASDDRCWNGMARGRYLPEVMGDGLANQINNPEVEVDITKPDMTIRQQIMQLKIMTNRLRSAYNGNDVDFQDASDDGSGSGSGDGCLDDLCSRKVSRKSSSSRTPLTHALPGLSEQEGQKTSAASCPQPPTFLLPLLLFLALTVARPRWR
From the text: To confirm that MIL38 recognized glypican-1, prostate cancer DU-145 MPEK extracts were subjected to 2D electrophoresis and western blotting.
Membrane protein extracts (MPEK) of DU-145 prostate cancer cells were separated on 2D gel (pI gradient-horizontal, and molecular mass vertical). Western blots using MIL38 antibody and commercial rGPC-1 rabbit polyclonal antibodies show overlapping reactivity marking a 60Kd protein (circled in FIG. 14). Lane D (FIG. 14) is a one dimension separation for DU-145 extracts as a control. Lane M (FIG. 14) is a one dimension separation lane for molecular size markers as controls.

MIL38 antigen = molecular target: T3, MIL38 antigen (Homo sapiens, UniProt P35052); experiment: Western blot of membrane protein extracts from normal prostate and prostate cancer; settings: equivalent amounts of protein
T3 construct: tissue Novus Bio; host or cells: membrane protein extracts of normal prostate and prostate cancer
T3 sequence (P35052 24-558): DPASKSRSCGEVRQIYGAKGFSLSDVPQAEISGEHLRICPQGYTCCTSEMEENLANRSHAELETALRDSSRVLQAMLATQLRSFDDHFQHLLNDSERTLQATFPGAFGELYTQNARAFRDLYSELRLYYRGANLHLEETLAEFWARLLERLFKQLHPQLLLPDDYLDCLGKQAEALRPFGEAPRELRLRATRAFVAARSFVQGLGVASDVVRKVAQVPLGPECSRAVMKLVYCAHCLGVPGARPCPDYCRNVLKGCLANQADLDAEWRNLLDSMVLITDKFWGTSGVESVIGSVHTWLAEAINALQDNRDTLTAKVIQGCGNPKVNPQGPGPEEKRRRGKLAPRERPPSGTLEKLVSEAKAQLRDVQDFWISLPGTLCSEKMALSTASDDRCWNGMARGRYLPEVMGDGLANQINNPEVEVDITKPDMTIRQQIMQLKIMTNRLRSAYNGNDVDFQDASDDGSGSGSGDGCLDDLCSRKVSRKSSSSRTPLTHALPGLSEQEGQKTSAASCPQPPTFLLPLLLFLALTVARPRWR
From the text: To determine if MIL38 antigen could be detected in membrane protein extracts from normal prostate and prostate cancer, one sample of each was obtained from Novus Bio. Equivalent amounts of protein were western blotted using MIL38 antibody (FIG. 16B).

glypican-1 [2] = molecular target: T4, glypican-1 (Homo sapiens, UniProt P35052); experiment: Immunoprecipitation and western blot of DU-145 or C3 (MIL38 negative) MPEK extracts
T4 construct: endogenous in cells; host or cells: DU-145 prostate cancer cells (membrane protein extract)
T4 sequence (P35052 24-558): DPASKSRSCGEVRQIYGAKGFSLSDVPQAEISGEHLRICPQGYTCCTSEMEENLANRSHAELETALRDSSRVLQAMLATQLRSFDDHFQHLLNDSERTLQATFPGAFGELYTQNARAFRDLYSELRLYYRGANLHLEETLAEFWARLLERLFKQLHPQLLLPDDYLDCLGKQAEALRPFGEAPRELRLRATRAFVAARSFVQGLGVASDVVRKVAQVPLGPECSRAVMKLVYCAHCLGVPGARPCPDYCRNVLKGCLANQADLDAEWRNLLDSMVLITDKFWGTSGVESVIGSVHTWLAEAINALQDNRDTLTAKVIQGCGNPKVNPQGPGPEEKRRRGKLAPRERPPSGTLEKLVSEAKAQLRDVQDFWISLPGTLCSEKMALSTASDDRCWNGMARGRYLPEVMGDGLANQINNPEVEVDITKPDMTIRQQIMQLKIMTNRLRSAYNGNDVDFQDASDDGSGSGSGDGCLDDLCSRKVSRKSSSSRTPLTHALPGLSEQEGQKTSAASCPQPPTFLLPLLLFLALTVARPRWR
From the text: MIL38 or rabbit anti-GPC-1 antibodies were used to immunoprecipitate their respective antigens from DU-145 or C3 (MIL38 negative) MPEK extracts. The immunoprecipitates (IPs) were western blotted with either MIL38 or anti-GPC-1 antibody (FIG. 15).
MIL38 and rabbit anti-GPC-1 antibodies were each used to immunoprecipitate their antigens from DU-145 prostate cancer or C3 (MIL38 negative) cell membrane protein extracts. Shown are the western blots of the immunoprecipitations detected with either MIL38 or anti-GPC-1 antibody. FIG. 15A depicts GPC1 detection of MIL38 immunoprecipitates (left) and MIL38 detection of GPC1 immunoprecipitates (right). FIG. 15B depicts MIL38 detection of MIL38 immunoprecipitates as a control. Lanes are: Magic Mark-commercial protein marker as control; DU145 MPEK-prostate cancer membrane protein extract (not immunoprecipitated); DU145 FT-prostate cancer flow through from immune precipitation; DU145 IP-immunoprecipitate using antibody; C3 MPEK-(MIL38 negative) control membrane protein extract (not immunoprecipitated); C3 FT-flow through from immune precipitation; C3 IP elution-(MIL38 negative) immunoprecipitate using antibody. MIL38 can detect the immunoprecipitate from rGPC1 antibody and vice versa. MIL38 can also bind to all controls including DU145 MPEK and to IP conducted by MIL38.

B1: MIL38-AM4: Murine anti human glypican 1 monoclonal antibody produced by hybridoma cells deposited at Cellbank Australia under accession number CBA20140026 (antibody)
heavy: QIQLVQSGPELKKPGETVKISCKASGYAFTDYSMNWVKQAPGKGLRWMGWINTETGEPTYTDDFKGRFAFSLETSASTAFLQINNLRNEDTATYFCARHYDYGGFPYWGQGTLVTVSAAKTTPPSVYPLAPGSAAQTNSMVTLGCLVKGYFPEPVTVTWNSGSLSSGVHTFPAVLQSDLYTLSSSVTVPSSTWPSETVTCNVAHPASSTKVDKKIVPRDCGCKPCICTVPEVSSVFIFPPKPKDVLTITLTPKVTCVVVDISKDDPEVQFSWFVDDVEVHTAQTQPREEQFNSTFRSVSELPIMHQDWLNGKEFKCRVNSAAFPAPIEKTISKTKGRPKAPQVYTIPPPKEQMAKDKVSLTCMITDFFPEDITVEWQWNGQPAENYKNTQPIMDTDGSYFVYSKLNVQKSNWEAGNTFTCSVLHEGLHNHHTEKSLSHSPGK
light: DIQMTQSPASLSASVGETVTITCRASGNVHNYLAWYQQKQGKSPQLLVYTAKTLADGVPSRFSGSGSGTQYSLKINSLQPEDFGTYYCQHFWSNPWTFGGGTKLEIKRADAAPTVSIFPPSSEQLTSGGASVVCFLNNFYPKDINVKWKIDGSERQNGVLNSWTDQDSKDSTYSMSSTLTLTKDEYERHNSYTCEATHKTSTSPIVKSFNRNEC
specific bands detected in plasma immunoprecipitates (glypican-1 [1]; MIL38 IP of both plasma samples): approx. 70 kDa
signal in prostate cancer patient plasma compared to normal patient plasma (glypican-1 [1]; patient 046 vs 042): markedly higher
ELISA response versus antibody concentration (human glypican-1 (GPC-1); 1 μg/ml and 10 μg/ml, normal stringency): concentration dependent response
saturation of ELISA signal (human glypican-1 (GPC-1); 10 μg/ml): saturation was not observed
stretches / common cores of GPC-1 recognized on the peptide arrays (human glypican-1 (GPC-1); peptide sets 1-5 (linear, loop, helical, sheet)): 135TQNARAFRD143 (SEQ ID NO: 7) and 348[…]358 (SEQ ID NO: 2)
molecular weight of protein detected (glypican-1 core protein): 60 kDa
expression of MIL38 antigen in prostate cancer extract versus normal prostate sample (MIL38 antigen): much higher
depletion of MIL38 and anti-GPC-1 antigens by immunoprecipitation (glypican-1 [2]; DU-145 MPEK flow through): almost complete depletion
reactive band detected in the other antibody's immunoprecipitate (glypican-1 [2]; DU-145 MPEK, IP with one antibody, blot with the other): 60 kDa
